Measurements from US20250145711A1 (Janssen / Centocor, published 2025).

Experiments:
[1] = target: T1, TRCW5 antigen (CD3δε-Fc-Avi) (biotinylated (site not stated)); assay: ELISA after heat
T1 construct: also called recombinant CD3

[2] = target: T1, TRCW5 antigen (CD3δε-Fc-Avi); assay: ELISA
[3] = target: T1, TRCW5 antigen (CD3δε-Fc-Avi); assay: binding after heat
[4] = target: T2, CD3 on primary human pan T cells (human, UniProt P07766 23-207); assay: flow cytometry, pan T-cells
T2 construct: on cells it stands in the TCR/CD3 complex; also called Pan T-cells (CD3-positive); endogenous CD3
T2 sequence (P07766 23-207 limits assumed): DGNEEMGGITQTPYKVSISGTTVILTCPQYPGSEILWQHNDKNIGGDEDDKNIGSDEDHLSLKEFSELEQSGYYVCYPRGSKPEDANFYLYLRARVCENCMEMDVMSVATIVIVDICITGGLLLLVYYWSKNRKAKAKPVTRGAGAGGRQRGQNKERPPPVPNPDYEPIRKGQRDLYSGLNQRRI

T1 sequence (chain, as listed by the source mutant limits assumed): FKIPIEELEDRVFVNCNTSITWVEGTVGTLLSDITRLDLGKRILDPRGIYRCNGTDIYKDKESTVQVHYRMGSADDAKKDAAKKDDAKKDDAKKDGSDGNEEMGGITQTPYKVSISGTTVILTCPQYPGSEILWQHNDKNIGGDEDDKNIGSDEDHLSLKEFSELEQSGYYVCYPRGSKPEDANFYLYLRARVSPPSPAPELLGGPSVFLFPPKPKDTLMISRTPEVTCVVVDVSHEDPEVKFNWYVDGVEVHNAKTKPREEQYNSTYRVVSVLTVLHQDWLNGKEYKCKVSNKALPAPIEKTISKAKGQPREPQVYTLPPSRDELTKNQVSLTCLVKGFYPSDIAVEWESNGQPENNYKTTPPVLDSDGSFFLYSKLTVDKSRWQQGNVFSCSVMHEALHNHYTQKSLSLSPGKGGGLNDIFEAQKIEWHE

Binder | % Retained 55° C. [1] | % Retained 60° C. [1] | % Retained 65° C. [1] | EC50 [2] | % Retained 55° C. [3] | % Retained 60° C. [3] | % Retained 65° C. [3] | % Binding retained on T-cells, 55° C. [4] | % Binding retained on T-cells, 60° C. [4] | % Binding retained on T-cells, 65° C. [4] | % Binding retained on T-cells, RT [4]
CD3B2030 (scFv) scFv: QVQLVQSGAEVKKPGSSVKVSCKASGYTFTRSTMHWVKQAPGQGLEWIGYINPSSAYTNYNQKFQGRVTLTADKSTSTAYMELSSLRSEDTAVYYCASPQVHYDYNGFPYWGQGTLVTVSSGGSEGKSSGSGSESKSTGGSEIVLTQSPATLSASPGERVTLSCSASSSVSYMNWYQQKPGQAPRRWIYDSSKLASGVPARFSGSGSGRDYTLTISSLEPEDFAVYYCQQWSRNPPTFGGGTKVEIK | 106% | 101% | 36% | 8.84 nM | 104% | 102% | 41.3% | 1.05 fraction | 1.1 fraction | 0.757 fraction | 1 fraction
CD3B2030 N106Q (scFv, also called CD3B2030 NtoQ) scFv: QVQLVQSGAEVKKPGSSVKVSCKASGYTFTRSTMHWVKQAPGQGLEWIGYINPSSAYTNYNQKFQGRVTLTADKSTSTAYMELSSLRSEDTAVYYCASPQVHYDYQGFPYWGQGTLVTVSSGGSEGKSSGSGSESKSTGGSEIVLTQSPATLSASPGERVTLSCSASSSVSYMNWYQQKPGQAPRRWIYDSSKLASGVPARFSGSGSGRDYTLTISSLEPEDFAVYYCQQWSRNPPTFGGGTKVEIK | 111% | 105% | 55% | 10 nM | 110% | 97.5% | 72.3% |  |  |  | 
CD3B2051 (scFv) scFv: QVQLVQSGAEVKKPGSSVKVSCKASGYTFTRSTMHWVKQAPGQGLEWMGYINPSSAYTNYNQKFQGRVTLTADKSTSTAYMELSSLRSEDTAVYYCASPQVHYDYNGFPYWGQGTLVTVSSGGSEGKSSGSGSESKSTGGSEIVLTQSPATLSASPGERVTLSCSASSSVSYMNWYQQKPGQAPRRLIYDSSKLASGVPARFSGSGSGRDYTLTISSLEPEDFAVYYCQQWSRNPPTFGGGTKVEIK | 109% | 94% | 32% | 8.73 nM | 104% | 95% | 10.9% |  |  |  | 
CD3B2051 N106P (scFv) scFv: QVQLVQSGAEVKKPGSSVKVSCKASGYTFTRSTMHWVKQAPGQGLEWMGYINPSSAYTNYNQKFQGRVTLTADKSTSTAYMELSSLRSEDTAVYYCASPQVHYDYPGFPYWGQGTLVTVSSGGSEGKSSGSGSESKSTGGSEIVLTQSPATLSASPGERVTLSCSASSSVSYMNWYQQKPGQAPRRLIYDSSKLASGVPARFSGSGSGRDYTLTISSLEPEDFAVYYCQQWSRNPPTFGGGTKVEIK |  |  |  | 10.9 nM | 87.7% | 32.6% | 0.2% |  |  |  | 
CD3B2051 N106R (scFv) scFv: QVQLVQSGAEVKKPGSSVKVSCKASGYTFTRSTMHWVKQAPGQGLEWMGYINPSSAYTNYNQKFQGRVTLTADKSTSTAYMELSSLRSEDTAVYYCASPQVHYDYRGFPYWGQGTLVTVSSGGSEGKSSGSGSESKSTGGSEIVLTQSPATLSASPGERVTLSCSASSSVSYMNWYQQKPGQAPRRLIYDSSKLASGVPARFSGSGSGRDYTLTISSLEPEDFAVYYCQQWSRNPPTFGGGTKVEIK |  |  |  | 11.2 nM | 101% | 74.5% | 8.4% |  |  |  | 
CD3B2051 N106S (scFv) scFv: QVQLVQSGAEVKKPGSSVKVSCKASGYTFTRSTMHWVKQAPGQGLEWMGYINPSSAYTNYNQKFQGRVTLTADKSTSTAYMELSSLRSEDTAVYYCASPQVHYDYSGFPYWGQGTLVTVSSGGSEGKSSGSGSESKSTGGSEIVLTQSPATLSASPGERVTLSCSASSSVSYMNWYQQKPGQAPRRLIYDSSKLASGVPARFSGSGSGRDYTLTISSLEPEDFAVYYCQQWSRNPPTFGGGTKVEIK |  |  |  | 11.1 nM | 101% | 70.9% | 1.5% |  |  |  | 
CD3B2051 N106V (scFv) scFv: QVQLVQSGAEVKKPGSSVKVSCKASGYTFTRSTMHWVKQAPGQGLEWMGYINPSSAYTNYNQKFQGRVTLTADKSTSTAYMELSSLRSEDTAVYYCASPQVHYDYVGFPYWGQGTLVTVSSGGSEGKSSGSGSESKSTGGSEIVLTQSPATLSASPGERVTLSCSASSSVSYMNWYQQKPGQAPRRLIYDSSKLASGVPARFSGSGSGRDYTLTISSLEPEDFAVYYCQQWSRNPPTFGGGTKVEIK |  |  |  | 15.2 nM | 54.9% | 1.4% | 0.7% |  |  |  | 
CD3B2089 (scFv) scFv: QVQLVQSGAEVKKPGSSVKVSCKASGYTFTRSTMHWVRQAPGQGLEWMGYINPSSAYTNYAQKFQGRVTLTADKSTSTAYMELSSLRSEDTAVYYCASPQVHYDYNGFPYWGQGTLVTVSSGGSEGKSSGSGSESKSTGGSEIVLTQSPATLSASPGERVTLSCSASSSVSYMNWYQQKPGQAPRRWIYDSSKLASGVPARFSGSGSGRDYTLTISSLEPEDFAVYYCQQWSRNPPTFGGGTKVEIK | 111% | 108% | 41% | 8.79 nM | 104% | 109% | 15.1% | 1.08 fraction | 0.494 fraction | 0.111 fraction | 1 fraction
CD3B2089 N106E (scFv) scFv: QVQLVQSGAEVKKPGSSVKVSCKASGYTFTRSTMHWVRQAPGQGLEWMGYINPSSAYTNYAQKFQGRVTLTADKSTSTAYMELSSLRSEDTAVYYCASPQVHYDYEGFPYWGQGTLVTVSSGGSEGKSSGSGSESKSTGGSEIVLTQSPATLSASPGERVTLSCSASSSVSYMNWYQQKPGQAPRRWIYDSSKLASGVPARFSGSGSGRDYTLTISSLEPEDFAVYYCQQWSRNPPTFGGGTKVEIK |  |  |  | 10.3 nM | 113% | 108% | 33.2% |  |  |  | 
CD3B2089 N106F (scFv) scFv: QVQLVQSGAEVKKPGSSVKVSCKASGYTFTRSTMHWVRQAPGQGLEWMGYINPSSAYTNYAQKFQGRVTLTADKSTSTAYMELSSLRSEDTAVYYCASPQVHYDYFGFPYWGQGTLVTVSSGGSEGKSSGSGSESKSTGGSEIVLTQSPATLSASPGERVTLSCSASSSVSYMNWYQQKPGQAPRRWIYDSSKLASGVPARFSGSGSGRDYTLTISSLEPEDFAVYYCQQWSRNPPTFGGGTKVEIK |  |  |  | 10.1 nM | 113% | 101% | 36.2% |  |  |  | 
CD3B2089 N106I (scFv) scFv: QVQLVQSGAEVKKPGSSVKVSCKASGYTFTRSTMHWVRQAPGQGLEWMGYINPSSAYTNYAQKFQGRVTLTADKSTSTAYMELSSLRSEDTAVYYCASPQVHYDYIGFPYWGQGTLVTVSSGGSEGKSSGSGSESKSTGGSEIVLTQSPATLSASPGERVTLSCSASSSVSYMNWYQQKPGQAPRRWIYDSSKLASGVPARFSGSGSGRDYTLTISSLEPEDFAVYYCQQWSRNPPTFGGGTKVEIK |  |  |  | 17.9 nM | 40.6% | 2.5% | 0.9% |  |  |  | 
CD3B2089 N106R (scFv) scFv: QVQLVQSGAEVKKPGSSVKVSCKASGYTFTRSTMHWVRQAPGQGLEWMGYINPSSAYTNYAQKFQGRVTLTADKSTSTAYMELSSLRSEDTAVYYCASPQVHYDYRGFPYWGQGTLVTVSSGGSEGKSSGSGSESKSTGGSEIVLTQSPATLSASPGERVTLSCSASSSVSYMNWYQQKPGQAPRRWIYDSSKLASGVPARFSGSGSGRDYTLTISSLEPEDFAVYYCQQWSRNPPTFGGGTKVEIK |  |  |  | 11.2 nM | 102% | 103% | 60.4% |  |  |  | 
CD3B2089 N106S (scFv) scFv: QVQLVQSGAEVKKPGSSVKVSCKASGYTFTRSTMHWVRQAPGQGLEWMGYINPSSAYTNYAQKFQGRVTLTADKSTSTAYMELSSLRSEDTAVYYCASPQVHYDYSGFPYWGQGTLVTVSSGGSEGKSSGSGSESKSTGGSEIVLTQSPATLSASPGERVTLSCSASSSVSYMNWYQQKPGQAPRRWIYDSSKLASGVPARFSGSGSGRDYTLTISSLEPEDFAVYYCQQWSRNPPTFGGGTKVEIK |  |  |  | 10 nM | 102% | 90.2% | 5.4% |  |  |  | 
CD3B2089 N106T (scFv) scFv: QVQLVQSGAEVKKPGSSVKVSCKASGYTFTRSTMHWVRQAPGQGLEWMGYINPSSAYTNYAQKFQGRVTLTADKSTSTAYMELSSLRSEDTAVYYCASPQVHYDYTGFPYWGQGTLVTVSSGGSEGKSSGSGSESKSTGGSEIVLTQSPATLSASPGERVTLSCSASSSVSYMNWYQQKPGQAPRRWIYDSSKLASGVPARFSGSGSGRDYTLTISSLEPEDFAVYYCQQWSRNPPTFGGGTKVEIK |  |  |  | 11.1 nM | 108% | 76.7% | 1.4% |  |  |  | 
